Results published in patent publication US20230365705A1 (DYNAMICURE BIOTECHNOLOGY, published 2023).

Columns and labels:
[1] = target: T1, Human CD93 on cells (human CD93 expressing CHO cells; HUVEC, U937 and KG1a cells) (human, UniProt Q9NPY3 22-652); assay: summary table, column FACS (HUVEC cells)
T1 construct: whole, on cells; also called hCD93 expressing CHO cells; hCD93 CHO cells
T1 sequence (looked up): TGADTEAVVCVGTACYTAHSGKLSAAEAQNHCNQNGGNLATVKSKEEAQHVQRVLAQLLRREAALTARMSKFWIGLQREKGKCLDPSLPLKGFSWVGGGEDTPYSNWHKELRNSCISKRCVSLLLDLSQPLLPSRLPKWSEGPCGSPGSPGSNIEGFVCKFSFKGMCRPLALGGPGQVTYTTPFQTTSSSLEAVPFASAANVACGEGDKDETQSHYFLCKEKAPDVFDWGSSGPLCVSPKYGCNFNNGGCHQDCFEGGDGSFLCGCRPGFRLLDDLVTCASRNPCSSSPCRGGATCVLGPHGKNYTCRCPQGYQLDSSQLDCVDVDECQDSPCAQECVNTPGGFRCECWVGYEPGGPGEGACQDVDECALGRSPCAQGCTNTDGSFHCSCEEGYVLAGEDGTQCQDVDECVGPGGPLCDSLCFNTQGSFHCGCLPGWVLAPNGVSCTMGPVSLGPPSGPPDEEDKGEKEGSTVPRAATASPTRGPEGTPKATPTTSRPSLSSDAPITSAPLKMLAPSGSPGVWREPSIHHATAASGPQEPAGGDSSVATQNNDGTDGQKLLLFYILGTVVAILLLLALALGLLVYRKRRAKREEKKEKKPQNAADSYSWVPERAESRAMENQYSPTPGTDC

[2] = target: T2, Human CD93 recombinant protein (Sino Biological Inc, Catalog #12589-H08H) (human, UniProt Q9NPY3 22-580); assay: summary table, column Octet (hCD93)
T2 construct: Biotinylated (EZ-LINK NHS-PEG4 biotin) in the BLI assays; also called hCD93; His-tagged human CD93
T2 sequence (looked up): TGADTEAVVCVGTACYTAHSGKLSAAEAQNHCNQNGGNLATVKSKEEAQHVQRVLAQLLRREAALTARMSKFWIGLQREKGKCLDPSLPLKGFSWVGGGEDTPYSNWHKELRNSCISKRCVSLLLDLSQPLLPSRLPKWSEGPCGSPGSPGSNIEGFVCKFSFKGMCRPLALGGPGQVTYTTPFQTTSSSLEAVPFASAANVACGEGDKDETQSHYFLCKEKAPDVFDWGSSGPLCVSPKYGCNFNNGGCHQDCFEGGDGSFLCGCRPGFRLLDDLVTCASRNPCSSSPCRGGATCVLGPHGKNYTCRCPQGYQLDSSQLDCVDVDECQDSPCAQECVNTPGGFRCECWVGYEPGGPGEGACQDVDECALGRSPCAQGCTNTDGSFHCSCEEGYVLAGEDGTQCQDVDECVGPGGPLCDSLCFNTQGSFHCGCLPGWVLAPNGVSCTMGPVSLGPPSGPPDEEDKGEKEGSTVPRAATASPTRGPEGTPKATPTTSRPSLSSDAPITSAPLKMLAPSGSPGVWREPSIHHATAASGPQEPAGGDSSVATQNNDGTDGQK

[3] = target: T2, Human CD93 recombinant protein (Sino …); assay: summary table, column ELISA (hCD93)
[4] = target: T1, Human CD93 on cells (human CD93 …); assay: flow cytometry titration, KG1a cells; antibody stored 2 weeks at 40 C
Procedure: (§1) KG1a cells were detached by incubation with TrypLE reagents (Thermo Fisher), which preserves the integrity of CD93 on the cell surface. Then the cells were incubated with serial diluted anti-CD93 antibodies for 30 minutes at 4° C. After washing by FACS buffer, the cells were incubated with Alexa Fluor 647 conjugated anti-human IgG (Jackson ImmunoResearch) for 30 minutes in 4° C. After washing by FACS buffer twice, the samples were acquired in NovoCyte Flow Cytometer and analyzed by NovoExpress software.

[5] = target: T1, Human CD93 on cells (human CD93 …); assay: summary table, column FACS (KG1a cells); 4 weeks at 40 C
Procedure: as §1, §1

[6] = target: T1, Human CD93 on cells (human CD93 …); assay: flow cytometry titration, KG1a cells; antibody stored 4 weeks at 40 C
Procedure: as §1

[7] = target: T1, Human CD93 on cells (human CD93 …); assay: summary table, column FACS (CHO-hCD93 cells); 2 weeks at 40 C
[8] = target: T1, Human CD93 on cells (human CD93 …); assay: summary table, column FACS (KG1a cells); 2 weeks at 40 C
Procedure: as §1, §1

[9] = target: T1, Human CD93 on cells (human CD93 …); assay: summary table, column FACS (KG1a cells)
Procedure: as §1, §1

[10] = target: T2, Human CD93 recombinant protein (Sino …); assay: summary table, column ELISA (hCD93); 2 weeks at 40 C
Procedure: (§2) His-tagged human CD93 was coated onto a 96 well plate at 1 μg/mL in 1×PBS overnight at 4° C. The plate was washed with ELISA wash buffer (Boston BioProduct, Inc.) and the wells were blocked with ELISA blocking buffer for 1 hour at 37° C. […] The plate was washed with ELISA wash Buffer. HRP-conjugated anti-human Fc antibody was incubated for 1 hour at 37° C. The plate was washed with ELISA wash Buffer. HRP substrate was added for indirect detection of the antibodies binding to CD93.
as §2

B1: 16E4 (hybridoma) (antibody, IgG2a, V domains shown)
VH: QVQLQQPGAELVKPGASVKLSCKASGYTFTSYWMHWVKQRPGQGLEWIGEIDPSASYTYYNQKFKGKATLTVDKSSSTAYMQLSSLTSEDSAVYYCARSVYYGNKYFDVWGAGTTVTVSS
VL: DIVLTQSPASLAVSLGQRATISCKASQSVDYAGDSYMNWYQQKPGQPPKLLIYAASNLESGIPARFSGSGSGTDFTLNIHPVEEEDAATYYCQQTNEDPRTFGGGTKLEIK
notes: also called 16E4 mAb; 16E4 mIgG2a
EC50 [1]: 0.2 nM
Kd [2]: 0.334 nM
EC50 [3]: 0.112 nM

B2: h7F3 (humanized 7F3, VH3+VL3) (antibody, human IgG1, V domains shown)
VH: QVQLVQSGAEVKKPGASVKVSCKASGYTFTDYEMHWVRQAPGQGLEWMGGIDPETGDTAYNQNFKGRVTMTTDTSTSTAYMELRSLTSDDTAVYYCTNYGNLYYYAMDYWGQGTSVTVSS
VL: EIVLTQSPSSLSASVGDRVTITCRASSSVSSSYLHWYQQKPGKAPKLLIYSTSNLAFGVPSRFSGSGSGTSYTFTISSLQPEDIATYYCQQYSGYPLTFGSGTKLEIK
notes: also called humanized 7F3-hIgG1
EC50 [4]: 0.021 nM
EC50 [5]: 0.019 nM
EC50 [1]: 1.34 nM
EC50 [6]: 0.019 nM
EC50 [7]: 0.194 nM
EC50 [8]: 0.021 nM
EC50 [9]: 0.024 nM
Kd [2]: 0.472 nM
EC50 [3]: 0.0427 nM
EC50 [10]: 0.0413 nM

B3: h16E4 (humanized 16E4, VH4+VL6) (antibody, V domains shown)
VH: QVQLVQSGAEVKKPGASVKVSCKASGYTFTSYWMHWVRQAPGQGLEWMGEIDPSASYTYYNQKFKGRVTMTRDKSSSTVYMELSSLTSEDSAVYYCARSVYYGNKYFDVWGAGTTVTVSS
VL: DIQMTQSPSTLSASVGDRVTITCKASQSVDYAGDSYMNWYQQKPGKAPKLLIYAASNLESGVPSRFSGSGSGTEFTLTISSLQPDDFATYYCQQTNEDPRTFGGGTKLEIK
notes: Detected with anti-human IgG, so a human Fc
EC50 [4]: 0.113 nM
EC50 [5]: 0.115 nM
EC50 [6]: 0.115 nM
EC50 [7]: 0.274 nM
EC50 [8]: 0.113 nM
EC50 [9]: 0.131 nM
Kd [2]: 0.416 nM
EC50 [3]: 0.033 nM
EC50 [10]: 0.049 nM
